Measurements taken from patent publication US20250092134A1 (Janssen / Centocor, published 2025).

B1: 20A9A9 (antibody, V domains shown)
VH: EVQLQESGPGLVQPSQSLSITCTVSGFSLTSYGVHWVRQSPGKGLEWLGIIWSAGGTDYNAAFISRLSISKDNSKSQIFFKLNSLHADDTAIYFCARGSFYDYGRLDYWGQGTTLTVSS
VL: DIVMTQSHRFMSTSVGDRVSITCKASQDVSTAVAWYQQKPGQSPKLLIYSSSYRYTGVPDRFTGSGSGTDFTFTISSVQAEDLAVYYCQQHYGTPYTFGGGTKLEIQ
B2: 20C12A3 (antibody, V domains shown)
VH: EVQLQESGAELVRPGTSVKMSCKASGYTFTHYWIDWTKQRPGHGLEWIGNIYPGGGYTNYNENFKGKATLTADKSSSTVFMQFSSLTSDDSAIYYCTRKGYYYGSDWYFDVWGTGTTVTVSS
VL: STSVGDRVSITCKASQDVSTAVAWYHQKPGQSPKLLIYSASYRYTGVPDRFTGSGSGTDFTFTISSVQAEDLAVYYCQQHYTTPYTFGGGTKLEMK
B3: 23A9B10 (antibody, V domains shown)
VH: EVQLQESGPGLVKPSQSLSLTCSVTGYSITSGYYWNWIRQFLGNKLEWMGYITYDGSNNYNPSLKDRISITRDTSKNQFFLNLNSVTTDDTATYYCARGGGYVPVWGTGTTVTVSS
VL: IQMTQSPAFLSVSPGERVSFSCRASQNIGTSIHWYQQRTNGSPRLLIKYASESISGIPSRFSGSGSGTDFTLSINSVESEDFADYYCHQSHNWPTTFGAGTKLELK

Biological target: Vβ17 (on cells expressing Vβ17)
Sequence (A0A075B6N1 22-114): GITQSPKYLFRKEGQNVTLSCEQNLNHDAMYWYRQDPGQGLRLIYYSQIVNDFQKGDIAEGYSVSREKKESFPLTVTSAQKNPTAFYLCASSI
Test: cell-based or functional assay

Row | Binder | Cell Internalization (EC50)
1 | B1 | 0.29 nM
2 | B2 | 0.06 nM
3 | B3 | 15.4 nM
